{"source": "patent US20230071283A1", "about": "“COMPOSITIONS AND METHODS FOR SELECTIVE PROTEIN EXPRESSION” (Novartis AG, priority 2017, published 2023)", "molecules": {"B1": {"name": "construct #130: furin degron with fewer mutations (ERmut2) fused to anti-CD19 scFV CAR; same furin cleavage sequence as #106 (protein)", "chain": "RSSLALSLTADQMVSALLDAEPPILYSEYDPTRPFSEASMMGLLTNLADRELVHMINWAKRVPGFVDLTLHDQVHLLECAWMEILMIGLVWRSMEHPGKLLFAPNLLLDRNQGKCVEGGVEIFDMLLATSSRFRMMNLQGEEFVCLKSIILLNSGVYTFLSSTLKSLEEKDHIHRVLDKITDTLIHLMAKAGLTLQQQHQRLAQLLLILSHIRHMSNKRMEHLYSMKCKNVVPLSDLLLEMLDAHRLGTGAEDPRPSRKRRSLGDVGEIVMTQSPATLSLSPGERATLSCRASQDISKYLNWYQQKPGQAPRLLIYHTSRLHSGIPARFSGSGSGTDYTLTISSLQPEDFAVYFCQQGNTLPYTFGQGTKLEIKGGGGSGGGGSGGGGSQVQLQESGPGLVKPSETLSLTCTVSGVSLPDYGVSWIRQPPGKGLEWIGVIWGSETTYYSSSLKSRVTISKDNSKNQVSLKLSSVTAADTAVYYCAKHYYYGGSYAMDYWGQGTLVTVSSTTTPAPRPPTPAPTIASQPLSLRPEACRPAAGGAVHTRGLDFACDIYIWAPLAGTCGVLLLSLVITLYCKRGRKKLLYIFKQPFMRPVQTTQEEDGCSCRFPEEEEGGCELRVKFSRSADAPAYKQGQNQLYNELNLGRREEYDVLDKRRGRDPEMGGKPRRKNPQEGLYNELQKDKMAEAYSEIGMKGERRRGKGHDGLYQGLSTATKDTYDALHMQALPPR"}}, "key": {"[1]": {"test_system": "NALM6 (CD19+)", "experiment": "Killing assay with luciferized target cells (remaining luciferase activity)", "conditions": "presence or absence of bazedoxifene; 20 hours; versus parental CAR19"}, "[2]": {"test_system": "NALM6, a CD19+ target cell line", "experiment": "Cytokine secretion in co-culture with target cells", "conditions": "presence or absence of bazedoxifene; 20 hours; versus parental CAR19"}, "[3]": {"test_system": "primary human T cells", "experiment": "FurON CAR19 surface expression in primary human T cells (FACS, protein L)", "type": "cell-based", "conditions": "cells prepared for the in vivo study; IL2 and 1 uM bazedoxifene; day 10", "protocol": "Bazedoxifene and raloxifene were resuspended in DMSO. In all instances, where concentrations not indicated, compounds were added at 1 uM for 24 hours prior to analysis by flow cytometry.\n. […] Cell number, size, and viability were also assessed.\nUntransduced T cells (UTDs) and the parental CAR19 were used as controls. […] .\nCART cells were generated by starting with blood from healthy apheresed donors whose naïve T cells were obtained by negative selection for T cells, CD4+ and CD8+ lymphocytes. These cells were activated by the addition of CD3/CD28 beads (Dynabeads® Human T-Expander CD3/CD28, Thermo Fisher Scientific) at a ratio of 1:3 (T cell to bead) in T cell medium (RPMI1640, 10% heat-inactivated fetal calf serum (FCS), 2 mM L-glutamine, lx Penicillin/Streptomycin, 100 μM non-essential amino acids, 1 mM Sodium Pyruvate, 10 mM Hepes, and 55 μM 2-mercaptoethanol) at 37° C., 5% CO2. T cells were cultured at 4×10^6 T cells (UTDs) or 5×10^6 (CART19 and FurON CART19) in 1 mL medium per well of a 24-well plate. […] T cells began to divide in a logarithmic growth pattern, which is monitored by measuring the cell counts per mL, and T cells are diluted in fresh medium every two days. […] On day 10 the cells are collected and the percentage of cells transduced (expressing the CD19-specific CAR on the cell surface) was determined by flow cytometry analysis on a FACS Fortessa (BD). […]"}, "[4]": {"test_system": "CD19+ NALM6 cells", "experiment": "Proliferation assay in co-culture with target cells (FACS, counting beads)", "conditions": "presence or absence of bazedoxifene; 4 days; versus parental CAR19"}}}
{"molecule": "B1", "values": [{"measurement": "Percent tumor lysis", "setting": "[1]", "value": "kill CD19+ tumor cells, in a stabilizing compound- and target-dependent manner and is noninferior to the parental CAR construct"}, {"measurement": "levels of IFNγ", "setting": "[2]", "value": "secrete cytokines in the presence of CD19+ tumor cells, in a manner that is stabilizing compound-dependent and is noninferior to the parental CAR construct"}, {"measurement": "surface expression (mean fluorescence intensity, MFI)", "setting": "[3]", "value": "lower than the observed for CART19"}, {"measurement": "Proliferation", "setting": "[4]", "value": "proliferate in the presence of CD19+ tumor cells, in a manner that is stabilizing compound-dependent and is noninferior to the parental CAR construct"}]}
